{"source": "a protein production outcome set (Wang et al. 2014)", "assay": "label from the status in PepcDB records", "data": [{"sequence": "MSAELTRARQQLSQIRGYLRQGKVMPAAQAFQSALVIVLKSPLMRAEREEFERMFADAAHHLNNDAGLRALFPLKIEYLPGSEKELLDIIRELVTAVNNAAVTEAQEQLAALDARKAAGLEQGQAHLDAQEFDAAAAVFRQLSHEFKDDPQLRGEIGERFLKAGRYEEAFDYLAQALDLSPESIHLYNRIGIALRRLGRFETGEKYYLRALQYAGHDPNLLFNLGRLYVDWQRWDKVAKAAAAALRVNPAFDEARKMLEFAERKLQR", "values": [{"measurement": "protein production", "value": "failed"}]}, {"sequence": "MTGSWLETLLLPFTVPFLRDAMIIALLVAVPTALLSCFLVLKGWALMGDAISHAVLPGVVLAYVAGLPLGVGAFAAGLGCALVTGYLKDNSRIKQDTVMGVVFSGMFGLGIVLHTSIRTDVHLDHILFGDMLGVGSSDLLESGLIALLVVGAIALKGRDLLLHAFDPQQARAIGLPVGLLHYGLLCLLALTIVGALKATGILLTVALLIGPGAIAFLFTRRFSSMLLAAVVISSLASVLGVYISLFLDSAPAPTIVLLLTLTFIAAFMVSRQRDRQRARGVDRPV", "values": [{"measurement": "protein production", "value": "failed"}]}, {"sequence": "MKKKKYVNSGTVTLLSFAVESECTFLDYIKGGTQINFTVAIDFTASNGNPSQSTSLHYMSPYQLNAYALALTAVGEIIQHYDSDKMFPALGFGAKLPPDGRVSHEFPLNGNQENPSCCGIDGILEAYHRSLRTVQLYGPTNFAPVVTHVARNAAAVQDGSQYSVLLIITDGVISDMAQTKEAIVNAAKLPMSIIIVGVGQAEFDAMVELDGDDVRISSRGKLAERDIVQFVPFRDYVDRTGNHVLSMARLARDVLAEIPDQLVSYMKAQGIRPRPPPAAPTHSPSQSPARTPPASPLHTHI", "values": [{"measurement": "protein production", "value": "failed"}]}, {"sequence": "ASEGEKHITVTVIHGDQTENVFEFDTDAKYLGEVLESENLVDGESGEYGLFITTVDEETADDSKQQWWCITKGGEQVNTSADQTPVSDGDAFELTLKEGY", "values": [{"measurement": "protein production", "value": "not failed"}]}, {"sequence": "APGTLVLAGTPIGDITDAPPRLAQELAGADVVAAEDTRRLRRLTQALGVQPAGRVVSYFEGNEAARTPELVEALLDGSRVLLVTDAGMPSVSDPGYRLVAAAVAKDIRVTAVPGPS", "values": [{"measurement": "protein production", "value": "failed"}]}, {"sequence": "MKIKFKRLDYQEQCRDQILGVFKGIDLKEPENDAQRISNPVFEIGAIKDLLLENIENLRSKQKITQGSVGIDKSLNCDILMETGTGKTFCFLECVYALHKNHHLSKFIVLTPSNAIKLGVLKSVEITREFFKSEYSNTHLESYEDIERFILASNHKCCVLVMTFSAFNKEKNTINKSCLENTNLFNGATSYMQALVSMRPIVIMDEPHRFLGDKTKKYLEQLNALLTLRFGATFKDDYNNLIYTLDSKKAFDCALVKSISVASVGESNECFLELKGIEKKEAAINYTDLENKTQSVKVKEHDNLGVVTQISALEDYIVEKITKTEIRFLNGFNLLLDQKEPFSHLLEGEQEVMLKEAIKSHFEREEGLFKKGIKALCMVFISGVNSYLSENEKPAKLALLFEKLYQQKLEEVLKKPLDENYRAYLECTREDIKKVHGGYFAKSKKEGDETKTIELILKEKEKLLSFDSDLRFIFSQWALQEGWDNPNVMTICKLAPSHSNITKLQQIGRGLRLAVNDKGERITKEHADFDFVNELVVIVPQVEGDFVGAIQQEISEHSLIKQEFSAEELEKSGVVKKGRYGFLLETLEGLGFGEKTGDENFKLTLNQNEFLEKEPELEKLKDEKYLDFEKLKDFLKDRLIGNSRVRDKNERKSEKIKINKENFKKFETLWESLNHQARIAYAIDSESLIDEIVKNINSSFNVSSKIVSVTTHKKVETMGNNAKTEIFERENACVWSLHEFISALSNKVKLSFKSVAKVLENIDENKFNEIKKNEQEGLRRLEELFLEIIYQNIKDKISYQMRETTIKNRKNDAFYDEKGEIREFLDGSLGADKYEIKNSSVREKCLYENFMQVDSEIEKDTIEESNDTKIIVFGKLPRVKIPIGLNQTYSPDFGYVVENNDKKVLLVVETKGVDKKSELRPEEERKISTAKKFFEALKKQGVNIEYKTKMEKDQLSALINEVLNRKD", "values": [{"measurement": "protein production", "value": "failed"}]}, {"sequence": "MSPIVTAILVASNLGLIFLLMTVPLGLRTVRVSRVIAMDRGRLWQALWPLGSDAGWSGEILSAEPLDGEGVSRIMLSWEGRDGEPIERRARFDDVVEGSRFSMRVLEDTALDASFWKDYRETAELVSEGSGTRVTLGRTDRYRGVAFLVFRYFAMRRELSKLQRWAMTGQYRKGGWFEHPLSQVGFAVLSALILWPFFGLHLGGLALAAILTSVVALHELGHMAAFRLMGHRKARMIFIPLLGGIAIGGRPYNSRFEVAFVALMGAGFSAFLVPIAIAASAFAGSEGHKAAAALLAALAGCAALFNIANLVPVWKFDGGQVLRQICPGPVALALASFFLLSAFLAVGWEAGFSSGFLLATGAVFSILSLLTMGSGVKPRYELKPIRTVDRFAIAGALLAVFVIHGCGVLWASAQLL", "values": [{"measurement": "protein production", "value": "failed"}]}, {"sequence": "ACTQPSDWVPPAKNDALVIALKKVIGGRLSDAFHIRDKLQRRDAIAAVKDDVIQQLAGRLEVEGWNLAELLKEFGELEYRTMRDALLDTKVRIDGRSLEAVRP", "values": [{"measurement": "protein production", "value": "not failed"}]}]}
